Measurements as given in US20090208454A1 (AMBRX, published 2009).

Molecular target: T1, IFNAR2 extracellular domain (UniProt P48551 27-243, limits assumed)
T1 construct: extracellular domain; It was immobilized on a CM5 Biacore chip by lysine-specific coupling; also called IFNAR2ECD; IFNAR ECD
T1 sequence (looked up): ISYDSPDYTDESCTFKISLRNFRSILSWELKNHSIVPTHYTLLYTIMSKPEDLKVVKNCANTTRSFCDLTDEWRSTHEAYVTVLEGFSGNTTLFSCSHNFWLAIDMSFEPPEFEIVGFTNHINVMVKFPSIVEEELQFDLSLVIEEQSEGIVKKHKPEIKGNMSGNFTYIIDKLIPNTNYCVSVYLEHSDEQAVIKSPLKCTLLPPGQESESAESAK
Assay: Biacore SPR, IFNAR2 ECD immobilized on CM5 chip, IFN injected, 1:1 model, average Kd
Description: The refolding reaction was then concentrated to 25 ml using an Amicon stirring cell, and dialyzed overnight against 20 mM Tris, pH 8, 20 mM NaCl, 10% glycerol. Monomeric refolded IFNAR ECD was purified on HP Q Sepharose using the AKTA FPLC system (Amersham). Purified IFNAR2ECD was immobilized on CM5 Biacore chip using a lysine-specific coupling procedure recommended by the manufacturer. About 200 RUs of functional protein were immobilized. Various concentrations of IFN beta variants in HBS-EP buffer (Biacore) were injected at a flow rate of 50 mcl/minute over the flowcell containing immobilized IFNAR2, and a control flowcell containing immobilized bovine serum albumin. Sensograms generated were fit to the 1:1 interaction model to calculate kₒₙ, koff and Kd values using BiaEvaluation software (Biacore).

B1: (C17S)-IFNβ (ligand)
chain: MSYNLLGFLQRSSNFQSQKLLWQLNGRLEYCLKDRMNFDIPEEIKQLQQFQKEDAALTIYEMLQNIFAIFRQDSSSTGWNETIVENLLANVYHQINHLKTVLEEKLEKEDFTRGKLMSSLHLKRYYGRILHYLKAKEYSHCAWTIVRVEILRNFYFINRLTGYLRN
notes: also called IFN beta with C17S substitution; (C17S)-IFN beta
In the case of B1, the Kd is reported as 0.8 nM.
